Results published in patent US20260242478A1 (published 2026).
Where no end group is shown, it is not given here.

B1: Phage-424 clonal phage peptide ITQCPSTMWNRCSV (peptide)
peptide: ITQCPSTMWNRCSV
notes: tested as crude clonal phage supernatant
B2: Phage-426 clonal phage peptide MFLCPSAMWNRCFY (peptide)
peptide: MFLCPSAMWNRCFY
notes: as for B1
B3: Phage-434 clonal phage peptide IVWCPTTQWNRCAT (peptide)
peptide: IVWCPTTQWNRCAT
notes: as for B1
B4: Phage-435 clonal phage peptide MDWCPRDRWVDCYA (peptide)
peptide: MDWCPRDRWVDCYA
notes: as for B1
B5: Phage-1723 (clonal phage displaying the peptide of SEQ ID NO: 2007) (peptide)
peptide: NCWWHDFRAGHVVC
notes: tested as crude phage supernatant
B6: Peptide-107 (peptide)
peptide: ACAGHAWQYINKCL
B7: Peptide-115 (peptide)
peptide: YCAGHAWQYINACL
B8: Peptide-108 (peptide)
peptide: YCAAHAWQYINKCL
B9: Peptide-112 (peptide)
peptide: YCAGHAWQAINKCL
B10: Peptide-116 (peptide)
peptide: YCAGHAWQYINKCA
B11: Peptide-110 (peptide)
peptide: YCAGHAAQYINKCL
B12: Peptide-111 (peptide)
peptide: YCAGHAWAYINKCL
B13: Peptide-114 (peptide)
peptide: YCAGHAWQYIAKCL
B14: Peptide-113 (peptide)
peptide: YCAGHAWQYANKCL
B15: Peptide-109 (peptide)
peptide: YCAGAAWQYINKCL
B16: Phage-436 clonal phage peptide MDWCPRDRWADCFN (peptide)
peptide: MDWCPRDRWADCFN
notes: as for B1
B17: Phage-440 clonal phage peptide MDWCPRDRWVDCFN (peptide)
peptide: MDWCPRDRWVDCFN
notes: as for B1
B18: Phage-437 clonal phage peptide MDWCPVDRWADCFN (peptide)
peptide: MDWCPVDRWADCFN
notes: as for B1
B19: Phage-427 clonal phage peptide VILCPTTMWNRCFH (peptide)
peptide: VILCPTTMWNRCFH
notes: as for B1
B20: Peptide-99 (peptide)
peptide: ACAAGASYAWPYCL
B21: Peptide-101 (peptide)
peptide: SCAAGAAYAWPYCL
B22: Peptide-100 (peptide)
peptide: SCAAAASYAWPYCL
B23: Peptide-104 (peptide)
peptide: SCAAGASYAWAYCL
B24: Peptide-103 (peptide)
peptide: SCAAGASYAAPYCL
B25: Peptide-106 (peptide)
peptide: SCAAGASYAWPYCA
B26: Peptide-102 (peptide)
peptide: SCAAGASAAWPYCL
B27: Peptide-105 (peptide)
peptide: SCAAGASYAWPACL
B28: Phage-417 clonal phage peptide IYWCPTAMWNRCSA (peptide)
peptide: IYWCPTAMWNRCSA
notes: as for B1
B29: Phage-439 clonal phage peptide MDWCPRDRWDVCFA (peptide)
peptide: MDWCPRDRWDVCFA
notes: as for B1
B30: Phage-36 (peptide, not shown: large carriers)
peptide: MDWCPRYLWHVCFA
modifications: cysteine pairing not given here; also: fused to phage pIII, linker not given here
notes: Clonal phage supernatant
B31: Phage-433 clonal phage peptide MAWCPWAQFDECLA (peptide)
peptide: MAWCPWAQFDECLA
notes: as for B1
B32: Phage-23 (peptide, not shown: large carriers)
peptide: MDWCPLHMWHECFS
notes: Clonal phage supernatant
B33: Phage-416 clonal phage peptide MDWCPSNMWNECFF (peptide)
peptide: MDWCPSNMWNECFF
notes: as for B1
B34: Phage-431 clonal phage peptide MAWCPADQWHECFN (peptide)
peptide: MAWCPADQWHECFN
notes: as for B1
B35: Phage-32 (peptide, not shown: large carriers)
peptide: MDWCPRDMWSVCFS
modifications: cysteine pairing not given here; also: fused to phage pIII, linker not given here
notes: Clonal phage supernatant; the listing entry decides
B36: Phage-438 clonal phage peptide MDWCPMSRWAFCFD (peptide)
peptide: MDWCPMSRWAFCFD
notes: as for B1
B37: Phage-422 clonal phage peptide MYWCPINMWDYCYA (peptide)
peptide: MYWCPINMWDYCYA
notes: as for B1
B38: Phage-29 (peptide, not shown: large carriers)
peptide: MDWCPRDLWVHCFA
modifications: cysteine pairing not given here; also: fused to phage pIII, linker not given here
notes: Clonal phage supernatant
B39: Phage-419 clonal phage peptide VDWCPAHMWNECYN (peptide)
peptide: VDWCPAHMWNECYN
notes: as for B1
B40: Phage-432 clonal phage peptide IDWCPIIQGLPCFA (peptide)
peptide: IDWCPIIQGLPCFA
notes: as for B1
B41: Phage-22 (peptide, not shown: large carriers)
peptide: MNWCPKDIWYLCFN
notes: Clonal phage supernatant
B42: Phage-425 clonal phage peptide MDLCPTAMWNRCFY (peptide)
peptide: MDLCPTAMWNRCFY
notes: as for B1
B43: Phage-1725 (clonal phage displaying the peptide of SEQ ID NO: 2009) (peptide)
peptide: SIPCIPRDWLCPIK
notes: as for B5
B44: Phage-1724 (clonal phage displaying the peptide of SEQ ID NO: 2008) (peptide)
peptide: IRCVGEGHDLVCIF
notes: as for B5
B45: Phage-423 clonal phage peptide INLCPTPMWNRCWL (peptide)
peptide: INLCPTPMWNRCWL
notes: as for B1
B46: Phage-428 clonal phage peptide MNWCPSTMWNRCLT (peptide)
peptide: MNWCPSTMWNRCLT
notes: as for B1
B47: Phage-441 clonal phage peptide MDWCPRDRWDDCFF (peptide)
peptide: MDWCPRDRWDDCFF
notes: as for B1
B48: Phage-35 (peptide, not shown: large carriers)
peptide: MDWCPRSLWHECFA
modifications: cysteine pairing not given here; also: fused to phage pIII, linker not given here
notes: Clonal phage supernatant
B49: Phage-418 clonal phage peptide MYWCPKYMWSECFA (peptide)
peptide: MYWCPKYMWSECFA
notes: as for B1

How the values were obtained:
[1] = target: T1, Anti-CD28 scFv (VH - linker 1 - VL) (biotinylated (site not stated)); test: phage ELISA; biotinylated anti-CD28 scFv on neutravidin plate, wells pre-incubated with soluble CD28 as competitor, anti-M13-HRP detection
T1 construct: Biotinylated and captured on neutravidin-coated plates in the phage panning ELISA
T1 sequence (scFv, as listed by the source): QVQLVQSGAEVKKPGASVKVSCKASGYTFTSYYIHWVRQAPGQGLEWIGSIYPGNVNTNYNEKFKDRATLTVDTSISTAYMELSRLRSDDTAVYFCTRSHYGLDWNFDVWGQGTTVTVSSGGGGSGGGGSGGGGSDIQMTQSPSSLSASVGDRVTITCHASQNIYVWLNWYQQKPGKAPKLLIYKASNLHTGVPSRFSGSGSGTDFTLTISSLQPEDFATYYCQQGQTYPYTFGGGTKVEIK

[2] = target: T1, Anti-CD28 scFv (VH - linker 1 - VL); test: phage ELISA; biotinylated anti-CD28 scFv on neutravidin plate, clonal phage supernatant, anti-M13-HRP detection;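 also: before phage addition, wells were pretreated with soluble CD28 protein in blocking buffer, or with blocking buffer only as the comparison, then phage were added without washing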
Experimental: Clonal phage were harvested as crude supernatants and screened via standard enzyme linked immunosorbent assays (ELISAs). […] Prior to the addition of clonal phage, wells were incubated with blocking buffer and CD28 soluble protein or blocking buffer alone. Without washing or aspirating, clonal phage supernatants were then added to the wells and incubated for a short time. Wells were then washed followed by detection of bound phage using a horse radish peroxidase conjugated anti-M13 antibody.

[3] = target: T2, Anti-PSMA Fab (SEQ ID NOs: 19, 20); test: phage binding ELISA; Fab-coated wells pre-incubated with PSMA antigen (competitor: PSMA), then clonal phage, anti-M13 HRP detection
T2 construct: Biotinylated and captured on neutravidin coated plates in the phage ELISA; also called 006 PSMA Fab
Experimental: (§1) Clonal phage were harvested as crude supernatants and screened via standard ELISAs. […] Prior to the addition of clonal phage. wells were incubated with blocking buffer and PSMA antigen or blocking buffer alone. Without washing or aspirating, clonal phage supernatants were then added to the wells and incubated for a short time. Wells were then washed followed by detection of bound phage using a horse radish conjugated anti-M13 antibody.

[4] = target: T2, Anti-PSMA Fab (SEQ ID NOs: 19, 20); test: phage binding ELISA; biotinylated anti-PSMA Fab captured on neutravidin plate, clonal phage supernatant, anti-M13 HRP detection
Experimental: as §1

anti-CD28 Fab = test: competition ELISA, peptide titrated 0-100 uM against 1 nM anti-CD28 Fab, plate-bound CD28 as competitor
anti-CD28 Fab, sequence (VH, as listed by the source, chain 1 of 2): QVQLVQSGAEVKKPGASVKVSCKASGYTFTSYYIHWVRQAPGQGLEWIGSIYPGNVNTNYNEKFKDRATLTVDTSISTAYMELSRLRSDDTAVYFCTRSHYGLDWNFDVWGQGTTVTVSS
anti-CD28 Fab, sequence (VL, as listed by the source, chain 2 of 2): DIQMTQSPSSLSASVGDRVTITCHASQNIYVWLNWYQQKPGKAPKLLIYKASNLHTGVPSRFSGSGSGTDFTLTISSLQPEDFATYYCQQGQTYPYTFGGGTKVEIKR

[5] = target: anti-CD28 scFv (VH - linker 1 - VL) (biotinylated (site not stated)); test: same phage ELISA, wells pre-incubated with soluble CD28 (competitor)
anti-CD28 scFv (VH - linker 1 - VL) (biotinylated (site not stated)), sequence (scFv, as listed by the source): as the sequence (scFv, as listed by the source) above

| Binder | CD28 scFv signal in presence of CD28 [1] | CD28 scFv signal [2] | IC50 (anti-CD28 Fab) [µM] | other results |
| --- | --- | --- | --- | --- |
| B1 | 0.108 | 0.098 | – | – |
| B2 | 0.114 | 0.094 | – | – |
| B3 | 0.083 | 0.067 | – | – |
| B4 | 0.403 | 1.48 | – | – |
| B5 | – | – | – | Anti-PSMA Fab signal in the presence of PSMA [3]: 0.0972; Anti-PSMA Fab (SEQ ID NOs: 19, 20) signal [4]: 2.05 |
| B6 | – | – | > 100 | – |
| B7 | – | – | > 100 | – |
| B8 | – | – | > 100 | – |
| B9 | – | – | > 100 | – |
| B10 | – | – | 98.6 | – |
| B11 | – | – | 3.16 | – |
| B12 | – | – | 12.3 | – |
| B13 | – | – | 5.49 | – |
| B14 | – | – | 102 | – |
| B15 | – | – | > 100 | – |
| B16 | 0.08 | 1.35 | – | – |
| B17 | 0.132 | 0.911 | – | – |
| B18 | 0.315 | 1.16 | – | – |
| B19 | 0.084 | 0.072 | – | – |
| B20 | – | – | 21 | – |
| B21 | – | – | 7.42 | – |
| B22 | – | – | > 100 | – |
| B23 | – | – | > 100 | – |
| B24 | – | – | > 100 | – |
| B25 | – | – | 76.4 | – |

| Binder | CD28 scFv signal in presence of CD28 [1] | CD28 scFv signal [2] | IC50 (anti-CD28 Fab) [µM] | other results |
| --- | --- | --- | --- | --- |
| B26 | – | – | > 100 | – |
| B27 | – | – | 13 | – |
| B28 | 0.073 | 0.817 | – | – |
| B29 | 0.096 | 0.924 | – | – |
| B30 | – | – | – | CD28 scFv signal in presence of CD28 [5]: 0.226 |
| B31 | 0.078 | 0.071 | – | – |
| B32 | – | – | – | CD28 scFv signal in presence of CD28 [5]: 0.151 |
| B33 | – | 0.983 | – | – |
| B34 | 0.456 | 1.84 | – | – |
| B35 | – | – | – | CD28 scFv signal in presence of CD28 [5]: 0.207 |
| B36 | 0.115 | 1 | – | – |
| B37 | 0.088 | 0.109 | – | – |
| B38 | – | – | – | CD28 scFv signal in presence of CD28 [5]: 0.179 |
| B39 | – | 0.664 | – | – |
| B40 | 0.065 | 0.368 | – | – |
| B41 | – | – | – | CD28 scFv signal in presence of CD28 [5]: 0.168 |
| B42 | 0.084 | 0.097 | – | – |
| B43 | – | – | – | Anti-PSMA Fab signal in the presence of PSMA [3]: 0.239; Anti-PSMA Fab (SEQ ID NOs: 19, 20) signal [4]: 1.8 |
| B44 | – | – | – | Anti-PSMA Fab signal in the presence of PSMA [3]: 0.081; Anti-PSMA Fab (SEQ ID NOs: 19, 20) signal [4]: 2.12 |
| B45 | 0.101 | 0.103 | – | – |
| B46 | 0.07 | 0.065 | – | – |
| B47 | 0.183 | 0.899 | – | – |
| B48 | – | – | – | CD28 scFv signal in presence of CD28 [5]: 0.255 |
| B49 | 0.099 | 0.741 | – | – |
